Laboratory results as given in publication PMC7948404.

Molecular target: CysLTR2-V2(A)6 L129Q (GFP10 fusion) (UniProt Q9NS75)
Assay: FRET or BRET; BRET^2 saturation-binding in live HEK293T cells: 5 ng β-arrestin2-RLuc3 and 0-200 ng receptor-GFP10 DNA per well; unstimulated, or WT with 1 μM LTD4 for 10 min at RT; BRET^2 ratio against normalized GFP10 fluorescence, one-site fit with shared Bmax; constitutive activity from Bmax/Kd, normalized to the fully LTD4-stimulated WT receptor

Sequence of UniProt Q9NS75 (Q9NS75 other isoform, or with tags, fused parts or gaps L129Q | L129Q): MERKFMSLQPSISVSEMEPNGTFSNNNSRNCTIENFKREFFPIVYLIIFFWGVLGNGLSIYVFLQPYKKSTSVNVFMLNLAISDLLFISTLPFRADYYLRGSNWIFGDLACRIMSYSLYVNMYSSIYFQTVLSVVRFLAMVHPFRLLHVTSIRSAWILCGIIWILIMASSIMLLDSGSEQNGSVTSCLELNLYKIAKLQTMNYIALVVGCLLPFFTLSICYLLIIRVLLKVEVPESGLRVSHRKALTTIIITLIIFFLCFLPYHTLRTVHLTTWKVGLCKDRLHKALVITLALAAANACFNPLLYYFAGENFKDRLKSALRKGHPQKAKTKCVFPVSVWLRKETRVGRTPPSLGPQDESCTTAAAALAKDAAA

constitutive activity of β-arrestin recruitment (% of LTD4-stimulated WT receptor): 17.8%
Substance: β-arrestin2-RLuc3 (from UniProt P32121 1-409) (natural protein)
